T1: Ac-DEVD-CHO, N-(N-Ac-Asp-Glu-Val)-3-amino-4-oxobutanoic acid
T1 chain: DEVD

T2: PMS1, P54277
T2 chain: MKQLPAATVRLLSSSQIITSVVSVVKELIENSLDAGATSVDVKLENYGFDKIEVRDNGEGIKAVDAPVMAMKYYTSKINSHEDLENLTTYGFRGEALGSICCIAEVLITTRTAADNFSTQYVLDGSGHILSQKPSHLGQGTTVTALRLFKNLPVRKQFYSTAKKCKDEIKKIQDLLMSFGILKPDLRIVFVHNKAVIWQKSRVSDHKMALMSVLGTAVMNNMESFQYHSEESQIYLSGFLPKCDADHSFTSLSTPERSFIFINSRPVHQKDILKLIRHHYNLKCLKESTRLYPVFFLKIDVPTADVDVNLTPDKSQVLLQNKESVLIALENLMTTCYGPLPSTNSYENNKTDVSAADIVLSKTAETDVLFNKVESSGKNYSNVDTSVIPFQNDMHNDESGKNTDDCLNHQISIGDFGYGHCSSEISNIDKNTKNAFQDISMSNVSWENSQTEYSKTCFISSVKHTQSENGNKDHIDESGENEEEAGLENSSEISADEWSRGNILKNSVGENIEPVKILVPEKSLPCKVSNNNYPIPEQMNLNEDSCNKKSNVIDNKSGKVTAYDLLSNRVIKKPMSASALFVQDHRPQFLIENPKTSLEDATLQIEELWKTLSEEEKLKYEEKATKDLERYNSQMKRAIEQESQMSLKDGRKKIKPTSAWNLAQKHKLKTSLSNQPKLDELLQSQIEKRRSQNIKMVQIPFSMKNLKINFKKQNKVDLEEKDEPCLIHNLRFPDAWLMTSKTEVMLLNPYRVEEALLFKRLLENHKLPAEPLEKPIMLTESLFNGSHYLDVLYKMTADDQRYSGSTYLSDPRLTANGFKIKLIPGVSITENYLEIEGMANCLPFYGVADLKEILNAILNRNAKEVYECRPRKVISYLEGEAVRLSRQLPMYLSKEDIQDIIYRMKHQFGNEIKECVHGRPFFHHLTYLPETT

T3: SRP-72, O76094
T3 chain: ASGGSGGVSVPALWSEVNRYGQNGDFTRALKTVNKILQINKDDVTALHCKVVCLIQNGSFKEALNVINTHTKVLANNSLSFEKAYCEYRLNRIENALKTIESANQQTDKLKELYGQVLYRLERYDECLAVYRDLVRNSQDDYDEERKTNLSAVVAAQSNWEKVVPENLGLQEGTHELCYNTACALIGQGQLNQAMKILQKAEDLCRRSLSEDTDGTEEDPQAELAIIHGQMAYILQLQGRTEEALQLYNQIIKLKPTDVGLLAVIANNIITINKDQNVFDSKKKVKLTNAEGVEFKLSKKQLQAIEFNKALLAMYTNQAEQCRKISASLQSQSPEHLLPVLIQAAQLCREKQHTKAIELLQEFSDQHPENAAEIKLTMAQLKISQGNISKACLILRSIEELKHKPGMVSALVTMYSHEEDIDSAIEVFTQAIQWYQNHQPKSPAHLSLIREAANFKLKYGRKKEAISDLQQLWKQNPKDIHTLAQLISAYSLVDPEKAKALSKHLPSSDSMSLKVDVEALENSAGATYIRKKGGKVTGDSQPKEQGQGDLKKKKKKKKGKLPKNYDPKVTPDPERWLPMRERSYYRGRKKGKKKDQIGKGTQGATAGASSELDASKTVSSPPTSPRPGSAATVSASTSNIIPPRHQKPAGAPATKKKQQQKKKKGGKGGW

T4: Topoisomerase I, P11387
T4 chain: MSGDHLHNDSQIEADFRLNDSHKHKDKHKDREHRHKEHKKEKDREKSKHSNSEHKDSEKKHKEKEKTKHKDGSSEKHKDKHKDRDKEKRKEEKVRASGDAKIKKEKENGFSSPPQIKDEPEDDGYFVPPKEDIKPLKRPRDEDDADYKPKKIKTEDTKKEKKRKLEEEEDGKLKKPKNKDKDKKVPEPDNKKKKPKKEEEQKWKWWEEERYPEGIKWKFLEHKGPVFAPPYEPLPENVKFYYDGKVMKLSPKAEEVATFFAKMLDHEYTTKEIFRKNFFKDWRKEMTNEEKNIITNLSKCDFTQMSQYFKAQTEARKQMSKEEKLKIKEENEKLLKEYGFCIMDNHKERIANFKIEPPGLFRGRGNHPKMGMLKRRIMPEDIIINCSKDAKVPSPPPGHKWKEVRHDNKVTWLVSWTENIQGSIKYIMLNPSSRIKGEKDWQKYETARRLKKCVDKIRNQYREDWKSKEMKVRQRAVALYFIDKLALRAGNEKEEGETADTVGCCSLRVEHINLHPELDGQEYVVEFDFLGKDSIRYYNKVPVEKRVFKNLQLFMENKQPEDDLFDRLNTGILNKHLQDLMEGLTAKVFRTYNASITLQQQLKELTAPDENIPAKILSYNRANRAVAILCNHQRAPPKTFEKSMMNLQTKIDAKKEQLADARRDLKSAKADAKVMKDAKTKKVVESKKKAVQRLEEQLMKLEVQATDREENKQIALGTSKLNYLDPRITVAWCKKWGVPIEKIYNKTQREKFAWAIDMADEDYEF

T5: PMS2, P54278
T5 chain: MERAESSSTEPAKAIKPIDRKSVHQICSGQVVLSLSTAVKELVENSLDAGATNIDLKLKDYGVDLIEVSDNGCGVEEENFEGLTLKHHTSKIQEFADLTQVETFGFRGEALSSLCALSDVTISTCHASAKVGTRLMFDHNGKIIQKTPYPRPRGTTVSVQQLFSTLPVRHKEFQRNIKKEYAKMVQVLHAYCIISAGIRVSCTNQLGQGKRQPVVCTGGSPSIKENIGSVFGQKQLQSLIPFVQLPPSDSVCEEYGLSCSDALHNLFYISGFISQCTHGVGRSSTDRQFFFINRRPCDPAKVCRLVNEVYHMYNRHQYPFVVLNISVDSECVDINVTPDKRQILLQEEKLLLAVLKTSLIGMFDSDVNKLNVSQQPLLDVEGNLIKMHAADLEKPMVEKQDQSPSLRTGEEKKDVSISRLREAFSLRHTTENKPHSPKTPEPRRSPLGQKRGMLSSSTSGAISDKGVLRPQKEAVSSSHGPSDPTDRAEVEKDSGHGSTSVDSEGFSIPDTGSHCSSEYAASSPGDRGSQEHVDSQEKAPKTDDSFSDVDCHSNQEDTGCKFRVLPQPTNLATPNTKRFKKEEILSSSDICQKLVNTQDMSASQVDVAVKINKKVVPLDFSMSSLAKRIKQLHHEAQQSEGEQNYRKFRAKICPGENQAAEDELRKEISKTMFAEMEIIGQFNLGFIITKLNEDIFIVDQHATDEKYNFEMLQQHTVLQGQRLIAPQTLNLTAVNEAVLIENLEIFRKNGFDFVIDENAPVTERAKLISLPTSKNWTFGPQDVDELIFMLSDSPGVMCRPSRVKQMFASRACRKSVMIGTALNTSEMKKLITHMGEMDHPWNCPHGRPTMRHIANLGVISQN

B1: caspase-3 (protein)
chain: SGISLDNSYKMDYPEMGLCIIINNKNFHKSTGMTSRSGTDVDAANLRETFRNLKYEVRNKNDLTREEIVELMRDVSKEDHSKRSSFVCVLLSHGEEGIIFGTNGPVDLKKITNFFRGDRCRSLTGKPKLFIIQACRGTELDCGIETDSGVDDDMACHKIPVEADFLYAYSTAPGYYSWRNSKDGSWFIQSLCAMLKQYADKLEFMHILTRVNRKVATEFESFSFDATFHAKKQIPCIVSMLTKELYFYH
B2: caspase-8 (protein)
chain 1: SESQTLDKVYQMKSKPRGYCLIINNHNFAKAREKVPKLHSIRDRNGTHLDAGALTTTFEELHFEIKPHDDCTVEQIYEILKIYQLMDHSNMDCFICCILSHGDKGIIYGTDGQEAPIYELTSQFTGLKCPSLAGKPKVFFIQACQGDNYQKGIPVETD
chain 2: LSSPQTRYIPDEADFLLGMATVNNCVSYRNPAEGTWYIQSLCQSLRERCPRGDDILTILTEVNYEVSNKDDKKNMGKQMPQPTFTLRKKLVFPSD

Columns and labels:
[1] = target: poly(ADP-ribose) polymerase
[2] = target: T1, Ac-DEVD-CHO, …
[3] = target: nuclear mitotic apparatus protein
nuclear mitotic apparatus protein, sequence (chain, as listed by the source): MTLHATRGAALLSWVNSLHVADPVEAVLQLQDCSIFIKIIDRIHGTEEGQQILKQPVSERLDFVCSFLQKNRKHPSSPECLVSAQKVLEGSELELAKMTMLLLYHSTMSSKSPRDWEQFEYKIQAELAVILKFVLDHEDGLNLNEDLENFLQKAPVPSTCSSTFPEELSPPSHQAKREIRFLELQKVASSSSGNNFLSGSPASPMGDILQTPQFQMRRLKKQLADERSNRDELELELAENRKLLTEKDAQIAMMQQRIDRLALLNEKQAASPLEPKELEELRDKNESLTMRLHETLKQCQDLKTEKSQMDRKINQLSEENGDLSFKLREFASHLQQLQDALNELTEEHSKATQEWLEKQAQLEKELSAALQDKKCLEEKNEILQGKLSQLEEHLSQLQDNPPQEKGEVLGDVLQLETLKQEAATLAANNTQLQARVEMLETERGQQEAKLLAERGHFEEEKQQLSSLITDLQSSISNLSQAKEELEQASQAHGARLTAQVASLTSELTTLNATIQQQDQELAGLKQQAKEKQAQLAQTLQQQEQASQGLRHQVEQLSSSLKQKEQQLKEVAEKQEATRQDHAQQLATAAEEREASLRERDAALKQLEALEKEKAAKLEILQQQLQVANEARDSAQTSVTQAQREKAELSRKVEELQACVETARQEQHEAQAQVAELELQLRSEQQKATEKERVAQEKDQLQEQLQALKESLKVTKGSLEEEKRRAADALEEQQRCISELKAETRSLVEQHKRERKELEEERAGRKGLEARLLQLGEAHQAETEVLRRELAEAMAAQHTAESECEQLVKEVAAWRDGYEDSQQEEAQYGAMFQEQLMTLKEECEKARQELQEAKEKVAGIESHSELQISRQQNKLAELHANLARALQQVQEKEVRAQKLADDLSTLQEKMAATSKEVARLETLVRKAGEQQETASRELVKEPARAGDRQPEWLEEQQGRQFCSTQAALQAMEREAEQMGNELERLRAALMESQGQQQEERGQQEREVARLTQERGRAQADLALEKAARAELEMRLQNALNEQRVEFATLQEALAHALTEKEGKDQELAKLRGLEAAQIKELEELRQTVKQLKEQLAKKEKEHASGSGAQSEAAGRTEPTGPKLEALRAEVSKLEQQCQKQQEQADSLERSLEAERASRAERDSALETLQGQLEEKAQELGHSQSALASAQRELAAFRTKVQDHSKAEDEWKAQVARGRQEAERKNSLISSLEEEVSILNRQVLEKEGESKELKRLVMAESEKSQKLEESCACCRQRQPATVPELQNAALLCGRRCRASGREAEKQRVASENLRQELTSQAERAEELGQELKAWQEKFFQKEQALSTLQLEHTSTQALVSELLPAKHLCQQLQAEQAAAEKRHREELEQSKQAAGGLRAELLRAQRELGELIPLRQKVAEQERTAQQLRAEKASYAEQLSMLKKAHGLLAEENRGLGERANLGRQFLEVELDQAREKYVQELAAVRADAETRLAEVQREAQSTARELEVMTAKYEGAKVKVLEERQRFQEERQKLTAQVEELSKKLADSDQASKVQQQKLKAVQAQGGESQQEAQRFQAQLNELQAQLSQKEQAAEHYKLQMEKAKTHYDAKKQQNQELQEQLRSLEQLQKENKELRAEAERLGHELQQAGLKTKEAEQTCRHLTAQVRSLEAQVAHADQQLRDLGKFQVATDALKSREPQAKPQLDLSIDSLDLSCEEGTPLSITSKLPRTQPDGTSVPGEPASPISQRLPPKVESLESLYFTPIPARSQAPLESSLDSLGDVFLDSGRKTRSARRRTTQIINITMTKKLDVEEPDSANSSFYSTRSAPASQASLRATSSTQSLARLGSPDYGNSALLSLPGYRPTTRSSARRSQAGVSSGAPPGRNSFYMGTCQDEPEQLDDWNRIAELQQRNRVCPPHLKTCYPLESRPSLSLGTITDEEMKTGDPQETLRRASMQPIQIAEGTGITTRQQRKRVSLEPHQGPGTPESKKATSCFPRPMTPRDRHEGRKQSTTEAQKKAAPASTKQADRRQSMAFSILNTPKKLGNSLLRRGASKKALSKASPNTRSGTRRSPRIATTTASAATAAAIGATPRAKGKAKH

[4] = target: RNA polymerase II large subunit, P24928
PMS1, P54277 = target: T2, PMS1, P54277
SRP-72, O76094 = target: T3, SRP-72, O76094
Topoisomerase I, P11387 = target: T4, Topoisomerase I, P11387
PMS2, P54278 = target: T5, PMS2, P54278

Ku-70, P12956, sequence (P12956 2-609): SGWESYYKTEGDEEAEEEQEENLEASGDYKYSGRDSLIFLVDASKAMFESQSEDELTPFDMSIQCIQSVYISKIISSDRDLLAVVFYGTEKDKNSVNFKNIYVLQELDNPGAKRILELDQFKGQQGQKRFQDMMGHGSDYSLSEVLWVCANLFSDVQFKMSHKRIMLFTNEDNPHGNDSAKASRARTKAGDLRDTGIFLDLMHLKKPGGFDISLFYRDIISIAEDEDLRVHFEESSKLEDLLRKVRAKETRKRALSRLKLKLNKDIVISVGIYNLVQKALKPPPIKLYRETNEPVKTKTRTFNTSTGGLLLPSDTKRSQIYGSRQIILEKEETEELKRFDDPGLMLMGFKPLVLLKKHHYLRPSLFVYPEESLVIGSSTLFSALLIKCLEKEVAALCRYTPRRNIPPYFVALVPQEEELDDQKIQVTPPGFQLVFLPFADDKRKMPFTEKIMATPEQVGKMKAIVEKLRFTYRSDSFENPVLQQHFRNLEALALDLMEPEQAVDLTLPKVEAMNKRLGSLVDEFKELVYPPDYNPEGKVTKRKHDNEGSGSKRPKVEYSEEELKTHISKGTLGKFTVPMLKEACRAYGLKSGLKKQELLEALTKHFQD
U1-70 kDa, P08621, sequence (P08621 whole entry): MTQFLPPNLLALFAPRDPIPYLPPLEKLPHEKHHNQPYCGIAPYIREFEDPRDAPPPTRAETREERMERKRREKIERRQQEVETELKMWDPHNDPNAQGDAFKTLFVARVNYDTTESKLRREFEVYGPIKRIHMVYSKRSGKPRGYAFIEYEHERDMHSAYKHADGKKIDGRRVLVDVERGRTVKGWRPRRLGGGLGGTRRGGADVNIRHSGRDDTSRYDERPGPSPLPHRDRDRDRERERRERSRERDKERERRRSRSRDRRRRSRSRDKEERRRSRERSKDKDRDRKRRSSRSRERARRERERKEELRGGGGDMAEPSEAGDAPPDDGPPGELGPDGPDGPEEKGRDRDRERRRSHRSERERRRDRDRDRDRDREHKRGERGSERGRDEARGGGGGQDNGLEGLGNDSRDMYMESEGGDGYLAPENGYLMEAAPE

Row | Protein | kcat/Km [1] [M⁻¹ s⁻¹] | generation of caspase-3 substrate fragments in HeLa lysate, immunoblotting [2] | kcat/Km [3] [M⁻¹ s⁻¹] | cleavage in iodoacetamide-treated HeLa lysate with 50 nM caspase-8 (Ku-70, P12956) | cleavage in iodoacetamide-treated HeLa lysate with 50 nM caspase-8 [1] | cleavage in iodoacetamide-treated HeLa lysate with 50 nM caspase-8 (Ki-67, P46013) | cleavage in iodoacetamide-treated HeLa lysate with 50 nM caspase-8 [4] | cleavage of radiolabelled IvTT protein (PMS1, P54277) | cleavage in iodoacetamide-treated HeLa lysate with 50 nM caspase-8 (SRP-72, O76094) | cleavage in iodoacetamide-treated HeLa lysate with 50 nM caspase-8 (Topoisomerase I, P11387) | cleavage in iodoacetamide-treated HeLa lysate with 50 nM caspase-8 (U1-70 kDa, P08621) | cleavage in iodoacetamide-treated HeLa lysate with 50 nM caspase-8 [3] | cleavage of radiolabelled IvTT protein (PMS2, P54278) | cleavage in iodoacetamide-treated HeLa lysate with 50 nM caspase-8 (Mi-2)
1 | B1 | 5e+06 | entirely abolished by 100 nM Ac-DEVD-CHO | 500000 | – | – | – | – | – | – | – | – | – | – | –
2 | B2 | – | – | – | No cleavage | No cleavage | No cleavage | No cleavage | also not cleaved by purified caspase-8 | No cleavage | No cleavage | No cleavage | No cleavage | also not cleaved by purified caspase-8 | No cleavage

Reference: US6855515
